Like-named read-outs stand apart in the source and are kept apart here. Blank lines part the entries; values can stand above or below the molecule they belong to.
What was measured:
[1] = target: PHOX2B Q46R homeodomain protein (human); assay: native gel or EMSA
[2] = target: OTP homeodomain protein (amino acids 99-164) (human) (UniProt Q5XKR4); assay: native gel or EMSA
[3] = target: PITX3 homeodomain protein (66 amino acid region) (human); assay: native gel or EMSA
[4] = target: ALX4 homeodomain protein (amino acids 209-274) (human) (UniProt Q9H161); assay: native gel or EMSA
[5] = target: PHOX2B Q46K homeodomain protein (human); assay: native gel or EMSA
[6] = target: CRX HD E4N (Homo sapiens, UniProt O43186 34-99, E42N); assay: EMSA
CRX HD E4N, sequence (O43186 34-99 E42N): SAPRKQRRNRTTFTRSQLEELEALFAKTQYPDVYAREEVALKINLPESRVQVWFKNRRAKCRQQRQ

[7] = target: T1, CRX HD R2Q (Homo sapiens, UniProt O43186 34-99, R40Q); assay: EMSA
T1 sequence (O43186 34-99 R40Q): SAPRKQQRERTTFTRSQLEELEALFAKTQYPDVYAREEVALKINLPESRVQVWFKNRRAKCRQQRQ

[8] = target: T2, CRX HD (Homo sapiens, UniProt O43186 34-99); assay: EMSA
T2 sequence (O43186 34-99): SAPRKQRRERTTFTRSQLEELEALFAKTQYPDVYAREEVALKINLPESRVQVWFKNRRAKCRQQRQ

[9] = target: T3, CRX HD E4N;K50Q (Homo sapiens, UniProt O43186 34-99, E42N;K88Q); assay: EMSA
T3 sequence (O43186 34-99 E42N/K88Q): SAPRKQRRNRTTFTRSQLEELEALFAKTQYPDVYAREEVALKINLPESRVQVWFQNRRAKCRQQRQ

[10] = target: T4, CRX HD K50Q (Homo sapiens, UniProt O43186 34-99, K88Q); assay: EMSA
T4 sequence (O43186 34-99 K88Q): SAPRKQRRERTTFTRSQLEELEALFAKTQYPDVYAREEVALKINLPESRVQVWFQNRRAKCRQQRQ

[11] = target: ARX HD P26L (Mus musculus, UniProt O35085 326-390, P355L); assay: EMSA
ARX HD P26L, sequence (O35085 326-390 P355L): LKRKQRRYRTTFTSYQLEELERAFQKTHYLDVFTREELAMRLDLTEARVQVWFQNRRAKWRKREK

[12] = target: PHOX2B HD R44G (Homo sapiens, UniProt Q99453 94-158, R141G); assay: EMSA
PHOX2B HD R44G, sequence (Q99453 94-158 R141G): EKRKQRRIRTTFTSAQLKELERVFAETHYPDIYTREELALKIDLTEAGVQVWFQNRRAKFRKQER

[13] = target: T3, CRX HD E4N;K50Q; assay: EMSA; remark: listed apart in the source
[14] = target: T4, CRX HD K50Q; assay: EMSA; remark: listed apart in the source
[15] = target: CRX HD E4K (Homo sapiens, UniProt O43186 34-99, E42K); assay: EMSA
CRX HD E4K, sequence (O43186 34-99 E42K): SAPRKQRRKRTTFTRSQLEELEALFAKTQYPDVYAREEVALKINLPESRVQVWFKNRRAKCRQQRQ

[16] = target: T1, CRX HD R2Q; assay: EMSA; remark: listed apart in the source
[17] = target: CRX HD R3Q (Homo sapiens, UniProt O43186 34-99, R41Q); assay: EMSA
CRX HD R3Q, sequence (O43186 34-99 R41Q): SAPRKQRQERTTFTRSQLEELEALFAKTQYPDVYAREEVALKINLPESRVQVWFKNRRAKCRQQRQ

[18] = target: T2, CRX HD; assay: EMSA; remark: listed apart in the source

Molecule: ALX4 homeodomain protein (amino acids 209-274) (from UniProt Q9H161 209-274) (domain or fragment)
- Tau with P4Q DNA [4]: 0.792

B1: P3K (dsDNA)
DNA 1: TGTGTCTTAATCCGATTAACGCACTTGATAGTGCGGGCGTGGCT
DNA 2: AGCCACGCCCGCACTATCAAGTGCGTTAATCGGATTAAGACACA
- binding result [6]: binds
- binding result [7]: binds
- binding signal [8]: 8.94 ± 1.78 Tau
- binding signal [9]: 395 ± 90.1 Tau
- binding signal [10]: 340 ± 161 Tau

B2: P3Q (dsDNA)
DNA 1: TGTGTCTTAATTAGATTAACGCACTTGATAGTGCGGGCGTGGCT
DNA 2: AGCCACGCCCGCACTATCAAGTGCGTTAATCTAATTAAGACACA
- binding signal [11]: ~10 fold decrease in Tau vs WT
- binding result [12]: no binding
- binding signal [9]: 112 ± 12.1 Tau
- binding signal [10]: 54.6 ± 2.72 Tau

B3: Q50 monomer (TAATTA) (dsDNA)
DNA 1: CGGGCTAATTAGGCCTAGTGCGGGCGTGGCT
DNA 2: AGCCACGCCCGCACTAGGCCTAATTAGCCCG
- binding result [13]: binds
- binding result [14]: binds

B4: K50 monomer (TAATCC) (dsDNA)
DNA 1: CGGGCTAATCCGGCCTAGTGCGGGCGTGGCT
DNA 2: AGCCACGCCCGCACTAGGCCGGATTAGCCCG
- binding result [15]: binds
- binding result [16]: binds
- binding result [17]: binds

B5: P4K (dsDNA)
DNA 1: TGTGTCTTAATCCGGATTAACGCACTTGATAGTGCGGGCGTGGCT
DNA 2: AGCCACGCCCGCACTATCAAGTGCGTTAATCCGGATTAAGACACA
- binding result [18]: binds

Results, then the molecule that gave them:

- Tau with P3Q DNA [1]: 1.27
Molecule: PHOX2B Q46R homeodomain protein (domain or fragment)

- Tau with P4Q DNA [2]: 0.29
Molecule: OTP homeodomain protein (amino acids 99-164) (from UniProt Q5XKR4 99-164) (domain or fragment)

- Tau with P3K DNA [3]: 0.157
Molecule: PITX3 homeodomain protein (66 amino acid region) (domain or fragment)

- Tau with P3Q DNA [5]: 0.9
Molecule: PHOX2B Q46K homeodomain protein (domain or fragment)

Reference: PMC13530268
